Laboratory results: paper PMC3082182 (The Journal of Cell Biology, 2011)

Molecular target: GST–FL Rngo (Drosophila melanogaster, UniProt Q9VXF9 1-458)
Assay: pull-down

binding result: binds
B1: FL MBP-Rpn10 (natural protein)
chain: MVLESTMICFDNSDFQRNGDYFPTRLIVQRDGINLVCLTKLRSNPENNVGLMTLSNTVEVLATLTSDAGRIFSKMHLVQPKGEINLLTGIRIAHLVLKHRQGKNHKMRIVVFVGSPINHEEGDLVKQAKRLKKEKVNVDIVSFGDHGNNNEILTAFINALNGKDGTGSHLVSVPRGSVLSDALLSSPIIQGEDGMGGAGLGGNVFEFGVDPNEDPELALALRVSMEEQRQRQESEQRRANPDGAPPTGGDAGGGGGVSGSGPGNEESAGAENEANTEEAMLQRALALSTETPEDNLPDFANMTEEEQIAFAMQMSMQDAPDDSVTQQAKRPKTDEANAPMDVDEDYSEVIGDPAFLQSVLENLPGVDPQSEAVRDAVGSLNKDKDKKSDGKDSQKK
